Entries after “also recorded” stand apart in the source; their conditions may differ.
Assays:
[1] = test system: S. aureus (strains Pig1 and LAC); assay: Effect of zinc on growth and viability of S. aureus; format: cell-based, Staphylococcus aureus; details: 100 μM Zn2SO4, RPMI 1640 with 10% FBS, 24 h
Experimental: To assess whether zinc, at the concentrations used in the inventors' study, adversely affect the growth and viability of S. aureus (strains Pig1 and LAC), bacteria (˜5×10^5 CFU) were incubated with or without 100 μM zinc (Zn2 SO4) in RPMI 1640 with 10% FBS. The assay was performed in triplicate in 96-well plates for 24 h at 37° C. at which time ten-fold serial dilutions were plated on THA for enumeration of CFU.

S. aureus [2] = assay: S. aureus survival assay in BMDM treated with IFN-γ; format: cell-based, mouse; details: C/EBPε−/− BMDM, IFN-γ 48 h before infection, 24 h
Experimental: Macrophages were infected with S. aureus at the specified MOI. […] After 30 min, macrophages were washed three times with pre-warmed media to remove extracellular bacteria. Gentamicin (Invitrogen, Carlsbad, Calif., USA) was then added to each well at a final concentration of 400 μg/mL for 1.5 h. At this time, the concentration of gentamicin in the media was reduced to 100 μg/mL for the remainder of the assay. At 24 h post infection, cells were washed three times with PBS, then 100 μl of 0.02% Triton X-100 in water was added to each well and pipetted vigorously 10× to promote macrophage lysis and release intracellular bacteria. Ten-fold serial dilutions of each cell lysate were immediately plated onto THA, and CFU were enumerated following overnight incubation at 37° C. Data are representative of at least two independent experiments performed in triplicate.
BMDM harvested from WT and C/EBPε^−/− mice were seeded at the required density of 5×10^4 cells per well (100 μl) in 96-well tissue culture plates. Macrophages were then activated with IFN-γ (200 U/mL) for 48 h prior to infection. Activated and control non-activated macrophages were infected with S. aureus at the specified MOI. The macrophage survival assay was then performed as described for U937 macrophages.

S. aureus [3] = assay: Murine skin (s.c.) S. aureus infection with IFN-γ treatment; format: in vivo, mouse; details: C/EBPε−/− mice, 5,000 U i.p. daily
Experimental: S. aureus was pelleted, washed twice and resuspended in PBS (Mediatech, Manassas, Va., USA) mixed 1:1 with sterile Cytodex beads (GE Healthcare, Pasadena, Calif., USA) at the specified inoculum, following an established protocol for generating localized S. aureus and S. pyogenes subcutaneous (s.c.) infection^41,42. One hundred microliters of two separate inocula, as specified, were administered by s.c. injection into the respective two flanks of each mouse. Injections were performed with careful visualization of the needle to assure that they were not intramuscular. Serial dilutions were prepared and plated to confirm the actual inocula used.
Baseline weights of mice were recorded prior to infection and daily thereafter until sacrifice. Lesions were measured with a caliper, daily throughout infection. Lesions were defined by darkened areas of dermonecrosis. The inventors' method to measure lesion size has been previously reported^43. Briefly, skin lesions were quantified by multiplying the length and width of the lesion. Irregularly-shaped lesions were broken down into smaller symmetrical pieces, and each piece was measured by the same method.
Following euthanization of mice on the specified day, infected skin lesion tissue was aseptically excised, and thoroughly homogenized and mixed in 1 mL of PBS as previously shown^43. Ten-fold serial dilutions of the homogenates were plated on THA for CFU determination. The spleen and both kidneys were aseptically removed from each animal and processed in the same way. When required, the appropriate homogenized suspensions (skin lesions) were centrifuged at 15,000 g for 10 min and supernatants stored at −80° C. for subsequent analysis by ELISA.
Mice were infected with S. aureus by s.c. injection as already described. One hundred microliters of two separate specified inocula were injected into the respective two flanks of WT and C/EBPε^−/− mice.
C/EBPε^−/− mice were treated with recombinant murine IFN-γ (Shenandoah Biotechnology, Warwick, Pa., USA) 48 h prior to infection. IFN-γ was administered i.p. (0.5 mL in PBS) at a dose of 5,000 U. Control WT and C/EBPε^−/− mice received equal amounts of PBS. The respective mice continued to receive IFN-γ or PBS every 24 h until they were euthanized.
Mouse weight and lesion size were recorded daily as already described. At day 4 p.i., mice were euthanized, and the CFU from skin lesions, spleen, and kidneys were determined.

Molecule	effect on viability and growth of S. aureus [1]	effect on viability and growth of S. aureus ([1]; listed as Zinc)	S. aureus CFU recovered from / killing by macrophages (S. aureus [2])	CFU in skin lesions, spleen and kidneys vs PBS (S. aureus [3])	area of dermonecrosis (S. aureus [3])	changes in body weight vs PBS-treated WT control (S. aureus [3])	overall lesion size / area vs PBS (S. aureus [3])
O=S(=O)([O-])[O-].[Zn+2] [zinc]	no effect; also recorded: does not have direct anti-staphylococcal activity	no effect					
IFN-γ: recombinant murine IFN-γ (Shenandoah Biotechnology) (protein, UniProt P01580 23-155, looked up) Interferon gamma: HGTVIESLESLNNYFNSSGIDVEEKSLFLDIWRNWQKDGDMKILQSQIISFYLRLFEVLKDNQAISNNISVIESHLITTFFSNSKAKKDAFMSIAKFEVNNPQVQRQAFNELIRVVHQLLPESSLRKRKRSRC			reduced the number of S. aureus CFU; also recorded: improved killing of S. aureus	lower numbers of bacteria in the skin lesions; also recorded: significantly lower CFU	dramatically ameliorated	similar	no effect on the overall lesion area; also recorded: no effect on overall lesion size
